Test results published in patent CN112521494A (WUHAN INST OF BIOLOGICAL PRODUCTS CO LTD, dated 2021).

How the values were obtained:
[1] = target: SARS-CoV-2刺突S1亚基蛋白(Sino公司，货号:40591-V02H) (SARS-CoV-2, UniProt P0DTC2 16-685)
[2] = target: T1, SARS-CoV-2刺突S1-His重组蛋白(Sino公司，货号:40591-V08H) (SARS-CoV-2, UniProt P0DTC2 16-685); experiment: ELISA; S1-His coated at 1.0 μg/mL, goat anti-human IgG-HRP detection
T1 construct: domain: S1; also called S1蛋白; 刺突蛋白S1

B1: 抗SARS-CoV-2的单克隆抗体2B11 (antibody, V domains shown)
VH: EVQLVESGGGLVQPGGSLRLSCAASEITVSSNYMNWVRQAPGKGLEWVSVIYSGGTTYYADSVKGRFTISRDNSENTLYLQMNSLRAEDTAVYYCARDLMEVGGMDVWGQGTTVTVSS
VL: LPVLTQPPSASGTPGQRVTISCSGSSSNVENDNVNWFQQQVPGSTPKLVIYNDRLRPSGVPDRFSGSKSGTSAYLAISGLQSEDEADYYCVAWDASLQSYVFGTGTKVTVL
notes: also called 2B11抗体; 人源抗SARS-CoV-2抗体2B11
- IC50 [1]: 2.79 nM
- EC50 [2]: 0.051 nM
